Data taken from article PMC9478397.

Substrate: Nc1nc(N[C@@H]2O[C@H](COP(=O)(O)O)[C@@H](O)[C@H]2O)c(NC=O)c(=O)[nH]1
Assay: formamidase assay, fluorescence HPLC of derivatized product (DARoPP / formate)
Assay type: biochemical, Sinorhizobium meliloti
Details: 50 mM TES pH 7.2, 10% glycerol, 0.25 mM DTT, 1 mM MgCl2, 30 °C, 8 min

B1: Sm-BrbF (SMc02977) (Sinorhizobium meliloti 1021) (protein)
chain: MSLPKPRWTDNSAALEPVERRDWIAVLPLGAHEQHGPHLPFETDRLIAAGIVERVIAALPQALPVTFLPVEPVGYSIEHMDVSGTRTLAYDEAIERWLGIAESLAGLGVRKFVMLNAHGGNSPLMTIVATEARIRFRMLAVATSWTRFGQPDGWISAKDKAVDIHGGDIETSVMLALHPDKVDMAKARAFPSRQGEFALSFKHLRAYGPHAFGWKMSDLNPDGVAGNAAAATAERGEALLAHAAKGIIELLEDVNAFDAGELD
notes: full ORF in pET-30 Ek/LIC, E. coli BL21; His tag cleaved with enterokinase, untagged
Km: 152.44 ± 33.59 µM
